In PMC12681905 one finds Kd data, which are given here for one substance.

Assay [1] deals with recombinant human LONP1 protein (human) (UniProt P36776). Briefly: BLI; Octet R8, biotinylated LONP1 on streptavidin 2.0 biosensor; SOD2 at 0, 2.5, 5 and 10 uM for 90 s; steady-state fit.
Assay [2] has the same target. Briefly: MST; Monolith NT.115; 86 nM NHS-labelled LONP1, SOD2 from 2.85 to 22.8 uM, incubated 10 min; 80 % LED power, 80 % MST.
Assay [3] has the same target. Briefly: SPR; Biacore T200, LONP1 covalently coupled to a CM5 chip; SOD2 from 10 to 0.3125 uM in PBS/0.01 % Tween 20, 20 ul/min; association 240 s, dissociation 420 s.

As usually defined, the Kd is the equilibrium constant for the complex coming apart. On to “recombinant human SOD2 protein (from UniProt P04179 25-222) (enzyme)”, for which the Kd in assay [1] worked out at 13400 nM; in assay [2] it was 1560 nM; in assay [3], 220 nM.
